From US20210395361A1 (Alector, published 2021)

Experiments:
[1] = molecular target: T1, human Siglec-5 (human, UniProt O15389 17-551); test: FACS titration, CHO-S hSiglec-5 cells, anti-human IgG secondary; y-axis Fold over isotype, x-axis Antibody (nM), log scale
T1 construct: also called CHO-S5; CHO-S hSiglec-5
T1 sequence: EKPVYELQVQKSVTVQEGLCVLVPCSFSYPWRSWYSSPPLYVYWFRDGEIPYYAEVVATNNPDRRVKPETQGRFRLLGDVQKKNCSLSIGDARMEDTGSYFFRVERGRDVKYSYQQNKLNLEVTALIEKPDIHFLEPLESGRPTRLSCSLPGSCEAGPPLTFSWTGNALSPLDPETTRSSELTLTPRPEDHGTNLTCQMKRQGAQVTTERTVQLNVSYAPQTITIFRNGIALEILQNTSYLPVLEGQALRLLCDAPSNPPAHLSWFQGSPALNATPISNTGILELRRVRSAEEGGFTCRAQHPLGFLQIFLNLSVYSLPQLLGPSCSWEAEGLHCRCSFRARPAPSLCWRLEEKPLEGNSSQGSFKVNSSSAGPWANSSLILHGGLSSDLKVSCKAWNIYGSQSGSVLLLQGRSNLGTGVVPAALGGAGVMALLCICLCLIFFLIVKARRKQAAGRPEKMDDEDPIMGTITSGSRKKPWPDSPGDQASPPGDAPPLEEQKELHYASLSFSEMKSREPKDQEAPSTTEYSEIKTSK
Protocol: (§1) CHO cells were incubated with increasing concentrations of anti-Siglec-5 antibody, as indicated on the x-axis of each plot. The binding of anti-Siglec-5 antibodies to the surface of CHO cells was then measured by FACS. The y-axis provides the binding of each indicated anti-Siglec-5 antibody to the surface of CHO cells relative to hIgG1 isotype control antibodies. S5-174-H2L1 refers to antibody S5-174-H3; S5-174-H3L1 refers to antibody S5-174-H5; S5-174-H3L2 refers to antibody S5-174-H6; S5-174-H4L1 refers to antibody S5-174-H7; S5-174-H4L2 refers to antibody S5-174-H8; S5-G03-H2L1 refers to antibody S5-G-03-H4; S5-G03-H2L2 refers to antibody S5-G-03-H5; S5-G03-H3L1 refers to antibody S5-G-03-H7; S5-G03-H3L2 refers to antibody S5-G-03-H8; and S5-G03-H3L3 refers to antibody S5-G-03-H9.
(§2) Various anti-Siglec-5 antibodies of the present disclosure were evaluated for their ability to bind to CHO cells which were stably transfected with human Siglec-5 (CHO-S5) or human Siglec-14 (CHO-S14). Cells were incubated with various dilutions of anti-Siglec-5 antibodies for 30 minutes on ice in the dark, followed by a 30-minute incubation with a fluorescently conjugated anti-human IgG secondary antibody. Cells were then washed twice in FACS buffer (PBS+2% FBS, 2 mM EDTA), and flow cytometry was performed on a BD FACS Canto. Data were analyzed using FlowJo software (Ashland, Oreg.). In FIG. 9, hIgG1 refers to isotype control antibodies; S5-174-H2L1 refers to antibody S5-174-H3; S5-174-H3L1 refers to antibody S5-174-H5; S5-174-H3L2 refers to antibody S5-174-H6; S5-174-H4L1 refers to antibody S5-174-H7; S5-174-H4L2 refers to antibody S5-174-H8; S5-G03-H2L1 refers to antibody S5-G-03-H4; S5-G03-H2L2 refers to antibody S5-G-03-H5; S5-G03-H3L1 refers to antibody S5-G-03-H7; S5-G03-H3L2 refers to antibody S5-G-03-H8; and S5-G03-H3L3 refers to antibody S5-G-03-H9.

[2] = molecular target: T2, human Siglec-14 (human, UniProt Q08ET2 17-396); test: FACS titration, CHO-S hSiglec-14 cells, anti-human IgG secondary; y-axis Fold over isotype, x-axis Antibody (nM), log scale; the same flat line on CHO-S Parental cells
T2 construct: also called CHO-S14; CHO-S hSiglec-14
T2 sequence: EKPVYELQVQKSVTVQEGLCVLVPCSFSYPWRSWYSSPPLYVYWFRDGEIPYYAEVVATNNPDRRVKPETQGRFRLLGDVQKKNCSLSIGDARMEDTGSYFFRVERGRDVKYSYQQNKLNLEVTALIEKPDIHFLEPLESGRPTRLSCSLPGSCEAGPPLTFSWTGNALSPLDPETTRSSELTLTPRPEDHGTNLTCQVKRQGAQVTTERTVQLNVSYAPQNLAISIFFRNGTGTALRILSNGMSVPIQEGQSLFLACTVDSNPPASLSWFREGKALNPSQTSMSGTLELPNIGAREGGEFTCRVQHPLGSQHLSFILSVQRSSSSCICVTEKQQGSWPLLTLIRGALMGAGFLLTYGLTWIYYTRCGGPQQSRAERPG
Protocol: as §1, §2

[3] = molecular target: T3, Histidine-tagged human Siglec-5 (NovoProtein) (human, UniProt O15389 17-434, limits assumed); test: array SPR, antibody immobilized, His-tagged human Siglec-5 (0-500 nM) in solution; apparent affinity
T3 construct: Bought soluble protein; also called His-tagged human Siglec-5; not shown: histidine tag
T3 sequence: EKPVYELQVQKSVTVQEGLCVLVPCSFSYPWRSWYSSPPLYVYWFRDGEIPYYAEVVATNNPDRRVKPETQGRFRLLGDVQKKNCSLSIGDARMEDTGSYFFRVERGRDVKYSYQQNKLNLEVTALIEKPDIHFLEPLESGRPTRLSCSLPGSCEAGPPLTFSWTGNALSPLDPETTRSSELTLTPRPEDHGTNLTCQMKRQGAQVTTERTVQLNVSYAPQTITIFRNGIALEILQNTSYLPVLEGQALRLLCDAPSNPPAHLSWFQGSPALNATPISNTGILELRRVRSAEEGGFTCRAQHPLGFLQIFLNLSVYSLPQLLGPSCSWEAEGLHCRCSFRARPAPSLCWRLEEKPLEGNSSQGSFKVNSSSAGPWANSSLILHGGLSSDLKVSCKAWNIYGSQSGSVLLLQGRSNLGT
Protocol: The apparent binding affinities of the anti-Siglec-5 antibodies were measured by array surface plasmon resonance (SPR), according to standard techniques (Abdiche, et al. (2016) MAbs 8:264-277). Briefly, anti-Siglec-5 antibodies were immobilized on a HC 30M chip at four different densities, at antibody concentration of 10 μg/mL, 2.5 μg/mL, 0.63 μg/mL, and 0.16 μg/mL. Varying concentrations (0-500 nM) of Histidine-tagged human Siglec-5 or cynomolgus Siglec-5 (NovoProtein) were then bound to the captured anti-Siglec-5 surface (5 min injection time, 15 min dissociation time) in HBS-EP⁺/1 mg/mL BSA running buffer. Kinetic analysis was performed using Carterra software to extract association and dissociation rate constants (kₐ and kd, respectively) for each antibody. Apparent affinity constants (KD) were calculated from the ratio kd/kₐ. None of the anti-Siglec-5 antibodies bound to cynomolgus Siglec-5 protein.

[4] = molecular target: T2, human Siglec-14; test: FACS, CHO cells stably transfected with human Siglec-14 (CHO-S14), fluorescent secondary antibody; y-axis Binding (Fold over background); antibody concentration not shown
Protocol: The anti-Siglec-5 antibodies were evaluated for their ability to bind to CHO cells which were stably transfected with human Siglec-5 (CHO-S5) or human Siglec-14 (CHO-S14). The anti-Siglec-5 antibodies were also evaluated for their ability to bind to primary human neutrophils. Cells were incubated with various dilutions of the anti-Siglec-5 antibodies for 30 minutes on ice in the dark, followed by a 30-minute incubation with a fluorescently-conjugated anti-human IgG secondary antibody. Cells were washed twice in FACS buffer (PBS+2% FBS, 2 mM EDTA), and flow cytometry was performed on a BD FACS Canto. Data were analyzed using FlowJo software (Ashland, Oreg.). In the figures, “hIgG1” and “mIgG1” refer to isotype control antibodies, and “S5/14 1A5” refers to a commercially available antibody that binds both Siglec-5 and Siglec-14 (BioLegend, clone 1A5).

B1: S5-G-03-H9 (antibody, V domains shown)
VH: EVQLLQSGGGLVQPGGSLRLSCAASGFTFSTYGMSWVRQAPGKGLELVATINSNGDNTYYADSVKGRFTISRDNSKNTLYLQMNSLRAEDTAVYYCARAWPSITTVFAPYTLDYWGQGTLVTVSS
VL: DIQLTQSPSSLSASVGDRVTMTCRASSSVSSSFLHWYQQKPGKAPKLWIYSTSNLASGVPSRFSGSGSGTDYTLTISSVQPEDFATYYCQQYSGYPLTFGQGTKLEIK
notes: Humanized variant of S5-G-03; also called S5-G03-H3L3
Does B1 bind [1]?
Result: binds

Does B1 bind [2]?
Result: no binding (tested: last point between 1 and 10 nM)

B2: S5-172 (antibody, V domains shown)
VH: QAYLQQSGPELVKPGASVKVSCKASGYSLTDYNMYWVKQSHGKSLEWIGYIDSYNGGTRYNQKFKGKATLTVDKSSSTAFMHLNSLTSEDSAVYYCAREGFGYDDREWFAYWGQGTLVTVSA
VL: DIVLTQTPLSLAVSVGEKVTMNCKSSQSLLYSTNQMTFLAWYQQKPGQSPKLLIYWASTRESGVPDRFTGSGSGTDFTLTISSVKAEDLAIYYCQQFYTYPFTFGSGTKLEIR
notes: Mouse-derived variable domains; expressed in mammalian cells as full antibody; hIgG1 isotype control
Which results are given for B2?
Kd [3]: 1.5 nM; koff [3]: 0.00053 s⁻¹; kon [3]: 350000 M⁻¹ s⁻¹; binding result [4]: no binding

B3: S5-190 (antibody, V domains shown)
VH: QAYLQQSGPELVKPGASVKVSCKASGYSLTDYNMYWVKQSHGKSLEWIGYIDSYNGGTRYNQKFKGKATLTVDKSSSTAFMHLNSLTSEDSAVYYCAREGFGYDDREWFAYWGQGTLVTVSA
VL: DIQMTQTPSSLAVSVGEKVTLSCKSSQSLLYSTNQMNFLAWYQQKPGQSPKLLIYWASTRESGVPDRFAGSGSGTDFTLTISSVKAEDLAVYYCQQFYSYPFTFGSGTELEIK
notes: Mouse-derived variable domains; same VH entry as S5-172; expressed in mammalian cells as full antibody; hIgG1 isotype control
Which Kd [3] does the source give for B3 here?
The Kd was 0.85 nM.

What about the koff [3] of the same binder?
Its koff is 0.00046 s⁻¹.

And the kon [3]?
Its kon is 540000 M⁻¹ s⁻¹.

Does B3 bind [4]?
Result: no binding

B4: S5-G-07 (antibody, V domains shown)
VH: QAYLQQSGAELARPGASVKMSCKASGYTFSSYTMYWVKQRPGQGLEWIGYINPSSGYTEYNQKFKDKATLTADKSSSTAYMQLISLTSEDSAVYYCARSDSKGDYWGQGTTLTVSS
VL: DVVMTQSPSSLSASLGERVSLTCRASQDIGNSLNWLQQEPDGTIKRLISATSSLDSGVPKRFSGSRSGSDYSLTISSLESEDFVDYYCLQYASSPLTFGAGTKLELK
notes: Mouse-derived variable domains; expressed in mammalian cells as full antibody; hIgG1 isotype control; also called SG-5-07
How did the Kd [3] turn out when B4 was run?
The Kd was no more than 0.42 nM.

And the koff [3]?
Its koff is no more than 1e-05 s⁻¹.

And the kon [3]?
The kon was 24000 M⁻¹ s⁻¹.

Does B4 bind [4]?
Result: no binding

B5: S5-G-10 (antibody, V domains shown)
VH: QAYLQQSGAELVKPGASVKLSCKASGYIFTEYTIHWVKQRSGQGLEWIGWFYPGSGSIKYNEKFKDKATLTADKSSSTVYMELSRLTSEDSAVYFCATHERAAQAAWSAYWGQGTLVTVSA
VL: DVQMNQSPASLSASVGETVTITCRASGNIHNYLAWYQQKQGKSPQLLVYNAKTLTDGVPSRFSGSGSGTQYSLKINTLQPEDFGSYYCQHFWSTPYTFGGGTKLEMK
notes: as for B2
How did the Kd [3] turn out when B5 was run?
The Kd was 79 nM.

What about the koff [3] of the same binder?
The koff was 0.00068 s⁻¹.

What about the kon [3] of the same binder?
Its kon is 8600 M⁻¹ s⁻¹.

Does B5 bind [4]?
Result: no binding

B6: S5-174 (antibody, V domains shown)
VH: QAYLQQSGAELVKPGTSVKLSCKASGYTFTNYWMHWVKQRPGQGLEWVGEIDPSDGYVTYNQNFKGKATLTVDRSSSTAYMQLSSLTSEDSAVYYCAGVYYGNSIYYAMDYWGQGTSVTVSS
VL: DIQMTQTRNFMSTSVGDRVNITCKATQDVGTAVAWYQVKPGQSPKLLIYWTSTRHTGVPDRFTGSGSGTDFTLTIKNVQSEDLADYFCQQYRSYPFTFGSGTKLEIK
notes: as for B2
What does the source list for B6?
Kd [3]: 1.7 nM; koff [3]: 0.00043 s⁻¹; kon [3]: 250000 M⁻¹ s⁻¹; binding result [4]: no binding

B7: S5-175 (antibody, V domains shown)
VH: QAYLQQSGAVLARPGASVRMSCKASGYSFTSYYMHWVKQRPGQGLEWIGAIYPGNSDTSYNQKFKGKAKLTAVTSASTAYMEVSSLTNEDSAVYYCTPLVRPRPYGMDYWGQGTSVTVSS
VL: DVVLTQSTSSLSASLGDRVTISCRASQDISNYLNWYQQKPDGTVKLLIYYTSRLHSGVPSRFSGSGSGTDYSLTISNLEQEDIATYFCQQGNTLPWTFGGGTKLEIK
notes: as for B2
Which Kd [3] does the source give for B7 here?
Its Kd is 15 nM.

What about the koff [3] of the same binder?
Its koff is 0.00045 s⁻¹.

And the kon [3]?
Its kon is 29000 M⁻¹ s⁻¹.

Does B7 bind [4]?
Result: no binding

B8: S5-176 (antibody, V domains shown)
VH: QAYLQQSGPELVKPGASVKVSCKASGYSFTDYNIYWVKQSHGKSLEWIGYFDPYNGGTNYNQRFKDKATLTVDKSSSTAFMQLNSLTSEDSAVYYCAREGYGYDDREWFAYWGQGTLVTVSA
VL: DIVMTQSPSSLAASVGEKVTMSCKSSQSLLYSTNQMTYLAWYQQKPGQSPKLLIFWASTRESGVPDRFTGSGSGTDFTLTISSVKAEDLAVYYCHQFYSYPFTFGSGTRWEIK
notes: as for B2
With B8 as the binder, how does the Kd [3] read?
The Kd was 1.1 nM.

What about the koff [3] of the same binder?
The koff was 0.00051 s⁻¹.

And the kon [3]?
The kon was 470000 M⁻¹ s⁻¹.

Does B8 bind [4]?
Result: no binding
